The target of experiment [1] is T1, IL-4 receptor alpha chain (UniProt P24394 26-232, limits assumed).
T1 sequence (looked up): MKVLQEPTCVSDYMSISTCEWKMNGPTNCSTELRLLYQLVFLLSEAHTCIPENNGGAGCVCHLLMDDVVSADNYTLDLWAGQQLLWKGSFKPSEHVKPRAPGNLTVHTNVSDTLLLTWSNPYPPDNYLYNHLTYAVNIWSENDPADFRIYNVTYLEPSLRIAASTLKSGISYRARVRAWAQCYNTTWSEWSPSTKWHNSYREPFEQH
The experiment is described as follows: cell-based or functional assay.

Experiment [2] concerns the target T1, IL-4 receptor alpha chain. In words: Biacore (SPR), IL-4 receptor α chain immobilized; n = 7. Background: In SPR one partner is held on a chip, and binding of the other changes the refractive index at the surface.
The target of experiment [3] is T1, IL-4 receptor alpha chain. In words: Biacore (SPR), IL-4 receptor α chain immobilized.
Experiment [4] concerns the target T1, IL-4 receptor alpha chain. The experiment is described as follows: Biacore assay, pre- and post-nebulized IL-4RA samples (Aeroneb Pro); no difference between them.

The values below come from patent publication US7947648 (AEROVANCE, dated 2011).

As usually defined, the Kd is a measure of binding affinity in units of concentration. The low end stands for tighter binding, the high end for weaker binding. Usually koff stands for the rate constant with which the complex falls apart. Low readings indicate a long-lived complex, high ones a short-lived complex. Broadly, the kon is a measure of how fast the partners come together. A lower kon goes with slow association.

B1: IL-4RA (mutant human IL-4 protein with the R121D/Y124D pair of substitutions) (ligand)
chain: MHKCDITLQEIIKTLNSLTEQKTLCTELTVTDIFAASKNTTEKETFCRAATVLRQFYSHHEKDTRCLGATAQQFHRHKQLIRFLKRLDRNLWGLAGLNSCPVKEANQSTLENFLERLKTIMDEKDSKCSS
notes: The entry may carry an N-terminal methionine; also called mhIL-4; IL-4 mutein
For the molecule B1, in experiment [1], the “EC50, inhibition of IL-4-induced cell proliferation (TF-1/IL-4 proliferation assay), pre and post nebulization (Aeroneb Pro)” value was in the range of 0.2 to 0.3 nM; the “IC50, TF-1 proliferation assay, post nebulization (Pari LC Plus)” value was 0.483 nM; the “IC50, TF-1 proliferation assay, pre nebulization (Pari LC Plus)” value worked out at 0.459 nM. The molecule further yielded a dissociation constant Kd in experiment [2] of 0.14 nM. In experiment [3], the koff was 0.0017 s⁻¹ and the on-rate (kon) is 1.6e+07 M⁻¹ s⁻¹. The same molecule came in with a Kd in experiment [4] of roughly 0.1 nM.
